Measurements published in patent US20260167710A1.

Assays:
[1] = molecular target: ST2-his (human) (UniProt Q01638); experiment: BLI (Octet RED384), ST2-his on anti-his sensors, IL-33 pre-mixed with the anti IL-33 control antibody (the complex binds ST2), steady state fit, average of n=2
[2] = molecular target: ST2-his (human) (UniProt Q01638); experiment: BLI (Octet RED384), ST2-his on anti-his sensors, IL-33 100 nM, steady state fit, average of n=2; not at equilibrium, for comparison only
[3] = molecular target: ST2-his (human) (UniProt Q01638); experiment: BLI (Octet RED384), ST2-his on anti-his sensors, IL-33 pre-mixed with ten-fold excess of 22A06-458 (the complex binds ST2), steady state fit, average of n=2

Sequence of ST2-his (human) (Q01638 other isoform, or with tags, fused parts or gaps limits assumed): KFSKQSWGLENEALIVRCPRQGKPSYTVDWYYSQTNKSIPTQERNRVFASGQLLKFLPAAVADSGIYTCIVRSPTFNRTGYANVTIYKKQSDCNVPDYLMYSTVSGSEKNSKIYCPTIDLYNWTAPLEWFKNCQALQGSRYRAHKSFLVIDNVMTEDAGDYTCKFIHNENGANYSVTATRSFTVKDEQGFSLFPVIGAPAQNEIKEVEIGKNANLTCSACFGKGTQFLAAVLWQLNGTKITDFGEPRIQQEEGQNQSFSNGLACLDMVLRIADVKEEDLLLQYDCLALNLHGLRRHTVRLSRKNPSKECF

- Kd [1]: 2.4 nM
- Kd [2]: 7.2 nM
- Kd [3]: 11.5 nM
B1: human IL-33 (ligand, not shown: small tags and cut ends)
chain: ITGISPITEYLASLSTYNDQSITFALEDESYEIYVEDLKKDEKKDKVLLSYYESQHPSNESGDGVDGKMLMVTLSPTKDFWLHANNKEHSVELHKCEKPLPDQAFFVLHNMHSNCVSFECKTDPGVFIGVKDNHLALIKVDSSENLCTENILFKLSET
modifications: Biotinylated in Example 2; the site is not stated.
